According to patent US7960155B1, “Cytochrome p450 monooxygenases and their use for oxidizing organic compounds” (BASF Aktiengesellschaft, priority 1999, dated 2011):

Experiments:
[1] = Activity test for the indole hydroxylation (kinetic parameters); assay type: biochemical; settings: excess of purified enzyme and high indole concentration for the wild type
Method: The indole hydroxylation activity was tested in a solution which contained 8 μl of a 10-500 mM indole solution in DMSO, 850 μl of tris/HCl buffer (0.1 M, pH 8.2) and 0.6 nmol of P450 BM-3 wild type or mutant in a final volume of 1 ml. The mixture was preincubated for 9 min before the reaction was started by addition of 50 μl of an aqueous 1 mM solution of NADPH. The reaction was stopped after 20 sec by addition of 60 μl of 1.2 M KOH. Within 5 to 30 sec (under aerobic conditions), the enzyme products were converted completely into indigo [Δ^2,2′-biindoline]-3,3′-dione) and indirubin ([Δ^2,3′-biindoline]-2′,3-dione). The indigo production was determined by means of its absorption at 670 nm. […] A linear curve was obtained for indigo production in a reaction time of 40 sec using 0.6 nmol of wild type or P450 BM-3 mutant and 0.05 to 5.0 mM of indole. […] The formation of indirubin was neglected in the determination of the kinetic parameters. The NADPH consumption was determined at 340 nm and calculated as described (17) using an extinction coefficient of 6.2 mM^−1 cm^−1.
Pure samples of the wild-type enzyme P450 BM-3 and of the mutants Leu188Gln, Phe87Val, F87L188 and F87L188A74 were used for the determination of the kinetic parameters of indole hydroxylation.

[2] = Production of indigo using isolated enzymes (colour reaction with indole and NADPH); assay type: biochemical
Description: It is known that indigo is accessible from indole by microbial transformation (24-26). None of these microbial systems, however, contained a P450 monooxygenase. According to the invention, the catalytic activity of the pure enzyme for indole was first determined. The mutant F87L188A74 was mixed with indole. No color reaction could be observed. […] By adjustment of the pH of the reaction mixture to a value of approximately 11, 30 sec after addition of NADPH, the blue coloration was visible within a few seconds. […] The blue pigment was extracted using ethyl acetate and analyzed by TLC. The blue pigment again separated into a more rapidly running blue component and into a slower running red component. The Rf values and the absorption spectra were identical to those values of the extracts from the fermentation broth. The F87L188A74 mutant of P450 BM-3 is thus an indole hydroxylase.

B1: WT: wild-type cytochrome P450 monooxygenase BM-3 from Bacillus megaterium (SEQ ID NO:2) (protein, listed as Bacillus megaterium)
chain: TIKEMPQPKTFGELKNLPLLNTDKPVQALMKIADELGEIFKFEAPGRVTRYLSSQRLIKEACDESRFDKNLSQALKFVRDFAGDGLFTSWTHEKNWKKAHNILLPSFSQQAMKGYHAMMVDIAVQLVQKWERLNADEHIEVPEDMTRLTLDTIGLCGFNYRFNSFYRDQPHPFITSMVRALDEAMNKLQRANPDDPAYDENKRQFQEDIKVMNDLVDKIIADRKASGEQSDDLLTHMLNGKDPETGEPLDDENIRYQIITFLIAGHETTSGLLSFALYFLVKNPHVLQKAAEEAARVLVDPVPSYKQVKQLKYVGMVLNEALRLWPTAPAFSLYAKEDTVLGGEYPLEKGDELMVLIPQLHRDKTIWGDDVEEFRPERFENPSAIPQHAFKPFGNGQRACIGQQFALHEATLVLGMMLKHFDFEDHTNYELDIKETLTLKPEGFVVKAKSKKIPLGGIPSPSTEQSAKKVRKKAENAHNTPLLVLYGSNMGTAEGTARDLADIAMSKGFAPQVATLDSHAGNLPREGAVLIVTASYNGHPPDNAKQFVDWLDQASADEVKGVRYSVFGCGDKNWATTYQKVPAFIDETLAAKGAENIADRGEADASDDFEGTYEEWREHMWSDVAAYFNLDIENSEDNKSTLSLQFVDSAADMPLAKMHGAFSTNVVASKELQQPGSARSTRHLEIELPKEASYQEGDHLGVIPRNYEGIVNRVTARFGLDASQQIRLEAEEEKLAHLPLAKTVSVEELLQYVELQDPVTRTQLRAMAAKTVCPPHKVELEALLEKQAYKEQVLAKRLTMLELLEKYPACEMKFSEFIALLPSIRPRYYSISSSPRVDEKQASITVSVVSGEAWSGYGEYKGIASNYLAELQEGDTITCFISTPQSEFTLPKDPETPLIMVGPGTGVAPFRGFVQARKQLKEQGQSLGEAHLYFGCRSPHEDYLYQEELENAQSEGIITLHTAFSRMPNQPKTYVQHVMEQDGKKLIELLDQGAHFYICGDGSQMAPAVEATLMKSYADVHQVSEADARLWLQQLEEKGRYAKDVWAG
- indole oxidation activity (in words) [1]: not able to oxidize indole
- blue pigment formation with pure enzyme, indole and NADPH [2]: always negative
